Measurements reported in PMC10794598.

Tests used:
[1] = target: BY2-RBD (ER-retained receptor-binding domain of the SARS-CoV-2 S protein expressed stably in Nicotia (SARS-CoV-2) (UniProt P0DTC2)); experiment: non-reducing PAGE Western blot
[2] = target: NB-RBD (ER-retained receptor-binding domain of the SARS-CoV-2 S protein expressed transiently in N. benthamiana) (SARS-CoV-2) (UniProt P0DTC2); experiment: non-reducing PAGE Western blot

Row | Substance | stoichiometry N [1] | stoichiometry N [2]
1 | BY2-RBD (ER-retained receptor-binding domain of the SARS-CoV-2 S protein expressed stably in Nicotia (from UniProt P0DTC2 319-541) (domain or fragment) | 4 | –
2 | NB-RBD (ER-retained receptor-binding domain of the SARS-CoV-2 S protein expressed transiently in N. benthamiana) (from UniProt P0DTC2 319-541) (domain or fragment) | – | 4
